# Reference: article PMC7299281
# Biological target: stabilized prefusion SARS-CoV-2 S ectodomain (SARS-CoV-2) (UniProt P0DTC2)
# Assay: negative-stain electron microscopy
Substance,stoichiometry N (Fab per trimer),stoichiometry N [per trimer]
COVA2-07 Fab,1,–
COVA2-15 Fab,–,3
COVA2-04 Fab,1,–
COVA2-39 Fab,1,–
COVA1-12 Fab,1,–
